Reference: patent US20230192903A1 (published 2023)

Assays:
Human CLDN18.2 [1] = biological target: Human CLDN18.2 (human); assay: cell-based or functional assay
Human CLDN18.2 [2] = biological target: Human CLDN18.2 (human); assay: cell-based or functional assay; remark: listed apart in the source
Human CLDN18.2 [3] = biological target: T1, Human CLDN18.2 (human); assay: flow cytometry, NUGC4-hCLDN18.2 cells
T1 construct: the cell line is named under assay; also called hCLDN18.2; human CLDN18.2 antigen
Method: (§1) NUGC4 and NUGC4-hCLDN18.2 cells were cultured, digested with pancreatin and centrifuged to collect cells. The cells were collected and resuspended in buffer (PBS+1% FBS) at 1×10⁴ cells/well in a 96-well plate at 100 μL per well. Then the mixture was centrifuged at 350×g for 5 min, and the supernatant was removed.

Human CLDN18.2 [4] = biological target: T1, Human CLDN18.2; assay: flow cytometry, NUGC4 cells (endogenous CLDN18.2)
Method: as §1

human CD3 antigen = biological target: T2, human CD3 antigen (human, UniProt P07766 23-126); assay: SPR (Biacore T200), human CD3 antigen amine-coupled on CM5 chip, 1:1 fit
T2 construct: also called Human CD3ϵ
Method: After the detection was completed, data fitting was carried out on the result pattern by adopting Biacore T200 Evaluation Software in a 1:1 binding fitting mode to obtain an equilibrium dissociation constant (KD).

Human CLDN18.2 [5] = biological target: T1, Human CLDN18.2; assay: cell-based or functional assay; remark: listed apart in the source
Human CLDN18.1 = biological target: T3, Human CLDN18.1 (human, UniProt P56856 1-261); assay: flow cytometry, 293T-hCLDN18.1 cells
T3 construct: also called hCLDN18.1

Human CLDN18.2 [6] = biological target: T1, Human CLDN18.2; assay: flow cytometry, NUGC4-hCLDN18.2 cells; remark: listed apart in the source
Method: as §1

Human CLDN18.2 [7] = biological target: T1, Human CLDN18.2; assay: flow cytometry, NUGC4 cells (endogenous CLDN18.2); remark: listed apart in the source

| Binder | EC50 (pM), in vitro killing by hPBMC, NUGC4-hCLDN18.2 cells (Human CLDN18.2 [1]) | EC50 (pM), in vitro killing by hPBMC, NUGC4 cells (Human CLDN18.2 [1]) | Induction of expression of CD25 EC50 (pM), NUGC4 (Human CLDN18.2 [2]) | Induction of expression of CD25 EC50 (pM), NUGC4-hCLDN18.2 (Human CLDN18.2 [2]) | Induction of expression of CD69 EC50 (pM), NUGC4 (Human CLDN18.2 [2]) | Induction of expression of CD69 EC50 (pM), NUGC4-hCLDN18.2 (Human CLDN18.2 [2]) | EC50 (Human CLDN18.2 [3]) | EC50 (Human CLDN18.2 [4]) | Kd (human CD3 antigen) | EC50 value for killing effect on NUGC4-hCLDN18.2 cells (Human CLDN18.2 [5]) | EC50 value for killing effect on NUGC4 cells (Human CLDN18.2 [5]) | binding result (Human CLDN18.1) | EC50 (Human CLDN18.2 [6]) | EC50 (Human CLDN18.2 [7]) |
| --- | --- | --- | --- | --- | --- | --- | --- | --- | --- | --- | --- | --- | --- | --- |
| bispecific antibody Y7 (bispecific antibody, human IgG1, kappa, YBODY structure: anti-CLDN18.2 Fab arm (2C6.9) and second monomer anti-CD3 scFv (Di6-2)-Fc) light: not shown heavy: QVQLQESGPGLVKPSETLSLTCTVSGFSLTRYGVSWIRQPPGKGLEWIGVIWGEGNTNYNPSLKSRVTISKDSSKSQVSLKLSSVTAADTAVYYCARVNFGNALDYWGQGTLVTVSSASTKGPSVFPLAPSSKSTSGGTAALGCLVKDYFPEPVTVSWNSGALTSGVHTFPAVLQSSGLYSLSSVVTVPSSSLGTQTYICNVNHKPSNTKVDKKVEPKSCDKTHTCPPCPAPPVAGPSVFLFPPKPKDTLMISRTPEVTCVVVDVSHEAPEVQFNWYVDGVEVHNAKTKPREEQFNSTFRVVSVLTVVHQDWLNGKEYKCKVSNKGLPAPIEKTISKTKGQPREPQVYTLPPCRDELTKNQVSLWCLVKGFYPSDIAVEWESNGQPENNYKTTPPVLDSDGSFFLYSKLTVDKSRWQQGNVFSCSVMHEALHNHYTQKSLSLSPGK QVQLVESGGGVVQPGRSLRLSCAASGFTFSTYAMNWVRQAPGKGLEWVGRIRSKYNNYATYYADSVKDRFTISRDDSKNTLYLQMNSLRGEDTAVYYCARHGNFGNSYVSWFAYWGQGTLVTVSSGGGGSGGGGSGGGGSQTVVTQEPSLTVSPGGTVTLTCRSSTGAVTTSNYANWVQQKPGQAPRGLIGGTNKRAPGVPARFSGSLLGGKAALTLSGVQPEDEAEYTCALWYSNLWVFGGGTKVEIKGRGRGSDKTHTCPPCPAPPVAGPSVFLFPPKPKDTLMISRTPEVTCVVVDVSHEAPEVQFNWYVDGVEVHNAKTKPREEQFNSTFRVVSVLTVVHQDWLNGKEYKCKVSNKGLPAPIEKTISKTKGQPREPQVCTLPPSRDELTKNQVSLSCAVKGFYPSDIAVEWESNGQPENNYKTTPPVLDSDGSFFLVSKLTVDKSRWQQGNVFSCSVMHEALHNHYTQKSLSLSPGK | 0.655 pM | 5.83 pM | 15.7 pM | 1.78 pM | 4.13 pM | 0.465 pM | 25.4 nM | 127 nM | 4.86 nM |  |  |  |  |  |
| bispecific antibody CS4 (bispecific antibody, human IgG1, kappa, CSBODY structure: two 2C6.9 Fab arms; second heavy chain (first heavy entry) and first heavy chain with anti-CD3 scFv (2a5) between CH1 and Fc2) light: not shown heavy 1: QVQLQESGPGLVKPSETLSLTCTVSGFSLTRYGVSWIRQPPGKGLEWIGVIWGEGNTNYNPSLKSRVTISKDSSKSQVSLKLSSVTAADTAVYYCARVNFGNALDYWGQGTLVTVSSASTKGPSVFPLAPSSKSTSGGTAALGCLVKDYFPEPVTVSWNSGALTSGVHTFPAVLQSSGLYSLSSVVTVPSSSLGTQTYICNVNHKPSNTKVDKKVEPKSCDKTHTCPPCPAPPVAGPSVFLFPPKPKDTLMISRTPEVTCVVVDVSHEAPEVQFNWYVDGVEVHNAKTKPREEQFNSTFRVVSVLTVVHQDWLNGKEYKCKVSNKGLPAPIEKTISKTKGQPREPQVYTLPPCRDELTKNQVSLWCLVKGFYPSDIAVEWESNGQPENNYKTTPPVLDSDGSFFLYSKLTVDKSRWQQGNVFSCSVMHEALHNHYTQKSLSLSPGK heavy 2: QVQLQESGPGLVKPSETLSLTCTVSGFSLTRYGVSWIRQPPGKGLEWIGVIWGEGNTNYNPSLKSRVTISKDSSKSQVSLKLSSVTAADTAVYYCARVNFGNALDYWGQGTLVTVSSASTKGPSVFPLAPSSKSTSGGTAALGCLVKDYFPEPVTVSWNSGALTSGVHTFPAVLQSSGLYSLSSVVTVPSSSLGTQTYICNVNHKPSNTKVDKKVEPKSCDKTHTAPAPAPAPAPAPAPAPQVQLVESGGGVVQPGRSLRLSCAASGFTFSTYAMNWVRQAPGKGLEWVARIRSKYNNYATYYADSVKDRFTISRDDSKNTLYLQMNSLRAEDTAVYYCARHGNFGNSYVSWFAYWGQGTLVTVSSGGGGSGGGGSGGGGSQTVVTQEPSLTVSPGGTVTLTCRSSTGAVTTSNYANWVQQKPGQAPRGLIGGTNKRAPGVPARFSGSLLGGKAALTLSGVQPEDEAEYYCALWYSNLWVFGGGTKVEIKGGGGSDKTHTCPPCPAPPVAGPSVFLFPPKPKDTLMISRTPEVTCVVVDVSHEAPEVQFNWYVDGVEVHNAKTKPREEQFNSTFRVVSVLTVVHQDWLNGKEYKCKVSNKGLPAPIEKTISKTKGQPREPQVCTLPPSRDELTKNQVSLSCAVKGFYPSDIAVEWESNGQPENNYKTTPPVLDSDGSFFLVSKLTVDKSRWQQGNVFSCSVMHEALHNHYTQKSLSLSPGK | 0.306 pM | 0.94 pM | 2.38 pM | 1.19 pM | 0.446 pM | 0.196 pM | 18.9 nM | 23.4 nM | 12 nM |  |  |  |  |  |
| bispecific antibody CS3 (bispecific antibody, human IgG1, kappa, CSBODY structure: two 1E9.2 Fab arms; second heavy chain (first heavy entry) and first heavy chain with anti-CD3 scFv (2a5) between CH1 and Fc2) light: not shown heavy 1: EVQLVESGGGLVKPGGSLRLSCAASGFSFSNSAMSWVRQAPGKGLEWVSTISSGDSYTYYADSVKGRFTISRDNAKNSLYLQMNSLRAEDTAVYYCARQGYGNALDYWGQGTLVTVSSASTKGPSVFPLAPSSKSTSGGTAALGCLVKDYFPEPVTVSWNSGALTSGVHTFPAVLQSSGLYSLSSVVTVPSSSLGTQTYICNVNHKPSNTKVDKKVEPKSCDKTHTCPPCPAPPVAGPSVFLFPPKPKDTLMISRTPEVTCVVVDVSHEAPEVQFNWYVDGVEVHNAKTKPREEQFNSTFRVVSVLTVVHQDWLNGKEYKCKVSNKGLPAPIEKTISKTKGQPREPQVYTLPPCRDELTKNQVSLWCLVKGFYPSDIAVEWESNGQPENNYKTTPPVLDSDGSFFLYSKLTVDKSRWQQGNVFSCSVMHEALHNHYTQKSLSLSPGK heavy 2: EVQLVESGGGLVKPGGSLRLSCAASGFSFSNSAMSWVRQAPGKGLEWVSTISSGDSYTYYADSVKGRFTISRDNAKNSLYLQMNSLRAEDTAVYYCARQGYGNALDYWGQGTLVTVSSASTKGPSVFPLAPSSKSTSGGTAALGCLVKDYFPEPVTVSWNSGALTSGVHTFPAVLQSSGLYSLSSVVTVPSSSLGTQTYICNVNHKPSNTKVDKKVEPKSCDKTHTAPAPAPAPAPAPAPAPQVQLVESGGGVVQPGRSLRLSCAASGFTFSTYAMNWVRQAPGKGLEWVARIRSKYNNYATYYADSVKDRFTISRDDSKNTLYLQMNSLRAEDTAVYYCARHGNFGNSYVSWFAYWGQGTLVTVSSGGGGSGGGGSGGGGSQTVVTQEPSLTVSPGGTVTLTCRSSTGAVTTSNYANWVQQKPGQAPRGLIGGTNKRAPGVPARFSGSLLGGKAALTLSGVQPEDEAEYYCALWYSNLWVFGGGTKVEIKGGGGSDKTHTCPPCPAPPVAGPSVFLFPPKPKDTLMISRTPEVTCVVVDVSHEAPEVQFNWYVDGVEVHNAKTKPREEQFNSTFRVVSVLTVVHQDWLNGKEYKCKVSNKGLPAPIEKTISKTKGQPREPQVCTLPPSRDELTKNQVSLSCAVKGFYPSDIAVEWESNGQPENNYKTTPPVLDSDGSFFLVSKLTVDKSRWQQGNVFSCSVMHEALHNHYTQKSLSLSPGK | 0.698 pM | 0.333 pM | 5.38 pM | 5.45 pM | 0.461 pM | 1.45 pM | 31.5 nM | 64 nM | 10 nM |  |  |  |  |  |
| bispecific antibody Y4 (bispecific antibody, human IgG1, kappa, YBODY structure: anti-CLDN18.2 Fab arm (1E9.2) and second monomer anti-CD3 scFv (2a5)-Fc) light: not shown heavy: EVQLVESGGGLVKPGGSLRLSCAASGFSFSNSAMSWVRQAPGKGLEWVSTISSGDSYTYYADSVKGRFTISRDNAKNSLYLQMNSLRAEDTAVYYCARQGYGNALDYWGQGTLVTVSSASTKGPSVFPLAPSSKSTSGGTAALGCLVKDYFPEPVTVSWNSGALTSGVHTFPAVLQSSGLYSLSSVVTVPSSSLGTQTYICNVNHKPSNTKVDKKVEPKSCDKTHTCPPCPAPPVAGPSVFLFPPKPKDTLMISRTPEVTCVVVDVSHEAPEVQFNWYVDGVEVHNAKTKPREEQFNSTFRVVSVLTVVHQDWLNGKEYKCKVSNKGLPAPIEKTISKTKGQPREPQVYTLPPCRDELTKNQVSLWCLVKGFYPSDIAVEWESNGQPENNYKTTPPVLDSDGSFFLYSKLTVDKSRWQQGNVFSCSVMHEALHNHYTQKSLSLSPGK QVQLVESGGGVVQPGRSLRLSCAASGFTFSTYAMNWVRQAPGKGLEWVARIRSKYNNYATYYADSVKDRFTISRDDSKNTLYLQMNSLRAEDTAVYYCARHGNFGNSYVSWFAYWGQGTLVTVSSGGGGSGGGGSGGGGSQTVVTQEPSLTVSPGGTVTLTCRSSTGAVTTSNYANWVQQKPGQAPRGLIGGTNKRAPGVPARFSGSLLGGKAALTLSGVQPEDEAEYYCALWYSNLWVFGGGTKVEIKGRGRGSDKTHTCPPCPAPPVAGPSVFLFPPKPKDTLMISRTPEVTCVVVDVSHEAPEVQFNWYVDGVEVHNAKTKPREEQFNSTFRVVSVLTVVHQDWLNGKEYKCKVSNKGLPAPIEKTISKTKGQPREPQVCTLPPSRDELTKNQVSLSCAVKGFYPSDIAVEWESNGQPENNYKTTPPVLDSDGSFFLVSKLTVDKSRWQQGNVFSCSVMHEALHNHYTQKSLSLSPGK | 0.378 pM | 137 pM | 12.2 pM | 0.962 pM | 0.61 pM | 0.67 pM | 24.4 nM | 58.9 nM | 5.74 nM |  |  |  |  |  |
| bispecific antibody Y18 (bispecific antibody, human IgG1, kappa, YBODY structure: anti-CLDN18.2 Fab arm (1E9.2) and second monomer anti-CD3 scFv (L2K)-Fc) light: not shown heavy: EVQLVESGGGLVKPGGSLRLSCAASGFSFSNSAMSWVRQAPGKGLEWVSTISSGDSYTYYADSVKGRFTISRDNAKNSLYLQMNSLRAEDTAVYYCARQGYGNALDYWGQGTLVTVSSASTKGPSVFPLAPSSKSTSGGTAALGCLVKDYFPEPVTVSWNSGALTSGVHTFPAVLQSSGLYSLSSVVTVPSSSLGTQTYICNVNHKPSNTKVDKKVEPKSCDKTHTCPPCPAPPVAGPSVFLFPPKPKDTLMISRTPEVTCVVVDVSHEAPEVQFNWYVDGVEVHNAKTKPREEQFNSTFRVVSVLTVVHQDWLNGKEYKCKVSNKGLPAPIEKTISKTKGQPREPQVYTLPPCRDELTKNQVSLWCLVKGFYPSDIAVEWESNGQPENNYKTTPPVLDSDGSFFLYSKLTVDKSRWQQGNVFSCSVMHEALHNHYTQKSLSLSPGK not shown |  |  |  |  |  |  |  |  |  | < 0.01 nM | < 0.01 nM | no binding | < 50 nM | < 100 nM |
